± gives the standard deviation of the averaged measurements.
System: ATP
Assay: switch fluorescence ratio, 500 uM ATP over buffer (Cy3 cluster intensity, sum of 5 cycles each) (fold (ratio)); higher = stronger signal-on switching upon ATP binding; sequences stand for … in TCGTCGGCAGCGTCAGATGTGTATAAGAGACAGTTTTTTTTTTTTTTTTTTTTTTTTT…TC
Conditions: aptamer strand: ATP DNA aptamer (quencher-CACCTGGGGGAGTATTGCGGAGGAAGG + anchor), 100 nM annealed; ATP concentration: 500 uM
Outline: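 Cy3-labelled switching-strand clusters on a modified Illumina MiSeq flow-cell were annealed to 100 nM quencher-labelled ATP aptamer and imaged first in selection buffer, then after 15 min with 500 uM ATP at 22 °C. NaOH stripping and re-annealing separated each of five buffer/ATP cycles, and clusters outside 100-1000 RFU were excluded. The fluorescence ratio sums target-cycle Cy3 intensity over buffer-cycle Cy3 intensity per cluster and averages it per switch-domain sequence.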
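Further: ATP exposure 15 min at 22 °C before imaging.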

| Sequence | switch fluorescence ratio |
| --- | --- |
| TTATGATTGT | 1.02 ± 0.03 |
| TTATGATTTG | 1.02 ± 0.02 |
| TTATGCCACG | 1.04 ± 0.016 |
| TTATGCGTTT | 1.2 ± 0.28 |
| TTATGCTTGG | 0.976 ± 0.031 |
| TTATGGACCT | 1.331 ± 0.0094 |
| TTATGGGAA | 1.04 ± 0.038 |
| TTATGGGGCG | 1.02 ± 0.035 |
| TTATGGGTCA | 0.983 ± 0.025 |
| TTATGTGGGT | 0.989 ± 0.029 |
| TTATGTTAGG | 0.97498 ± 0.00083 |
| TTATGTTCGA | 1.018 ± 0.005 |
| TTATTAAAAT | 0.997 ± 0.021 |
| TTATTAAATC | 1.008 ± 0.0064 |
| TTATTAAGCT | 1.01 ± 0.027 |
| TTATTACGG | 1 ± 0.027 |
| TTATTAGGGG | 0.983 ± 0.028 |
| TTATTAGTGA | 0.9904 ± 0.006 |
| TTATTATTGG | 0.986 ± 0.013 |
| TTATTCAAAA | 1 ± 0.023 |
| TTATTCGGTT | 0.982 ± 0.031 |
| TTATTCGTTG | 0.99 ± 0.025 |
| TTATTCTTGT | 1 ± 0.017 |
| TTATTGGAAT | 1 ± 0.063 |
| TTATTGGGGA | 0.974 ± 0.024 |
| TTATTGGTGT | 1.01 ± 0.024 |

| Sequence | switch fluorescence ratio |
| --- | --- |
| TTATTGTTAG | 0.9784 ± 0.0027 |
| TTATTTAAAA | 1 ± 0.02 |
| TTATTTAAAG | 1.018 ± 0.0024 |
| TTATTTAATC | 1.01 ± 0.038 |
| TTATTTAGCA | 0.987 ± 0.038 |
| TTATTTCAAG | 1.01 ± 0.064 |
| TTATTTCATT | 0.9966 ± 0.0062 |
| TTATTTCCGG | 1.01 ± 0.028 |
| TTATTTGGA | 0.98 ± 0.04 |
| TTATTTGGAT | 0.9897 ± 0.005 |
| TTATTTGGGA | 0.991 ± 0.043 |
| TTATTTTATT | 0.998 ± 0.021 |
| TTATTTTCAT | 1 ± 0.025 |
| TTATTTTCGA | 0.999 ± 0.021 |
| TTATTTTTA | 0.9699 ± 0.0017 |
| TTATTTTTGA | 1.07 ± 0.096 |
| TTATTTTTTG | 1 ± 0.056 |
| TTCAAAAAGT | 0.991 ± 0.021 |
| TTCAAAATTA | 0.9913 ± 0.0096 |
| TTCAAAGGGT | 1.005 ± 0.0049 |
| TTCAACATTT | 1.04 ± 0.011 |
| TTCAACGGGG | 0.9948 ± 0.0039 |
| TTCAACTTTT | 1.01 ± 0.056 |
| TTCAAGGGGA | 1.06 ± 0.13 |
| TTCAAGGTA | 1.01 ± 0.015 |
| TTCAATCATG | 0.988 ± 0.011 |

| Sequence | switch fluorescence ratio |
| --- | --- |
| TTCAATGGTT | 1.02 ± 0.035 |
| TTCAATTTAG | 0.9954 ± 0.0042 |
| TTCAATTTTT | 0.997 ± 0.021 |
| TTCACAGCCA | 1.09 ± 0.043 |
| TTCACATTTT | 0.9961 ± 0.0026 |
| TTCACCGGGA | 0.9932 ± 0.007 |
| TTCACTAGTG | 1.02 ± 0.035 |
| TTCACTGATG | 1.05 ± 0.017 |
| TTCACTGGGA | 0.9962 ± 0.00098 |
| TTCACTGGTC | 1.019 ± 0.0011 |
| TTCACTTAGC | 1.075 ± 0.0076 |
| TTCAGAAAGG | 1 ± 0.023 |
| TTCAGAAGTC | 1.01 ± 0.056 |
| TTCAGACCGT | 1.016 ± 0.0064 |
| TTCAGAGGGG | 0.997 ± 0.033 |
| TTCAGAGTCA | 0.985 ± 0.042 |
| TTCAGCAATT | 1.57 ± 0.31 |
| TTCAGCGCGC | 1.007 ± 0.0075 |
| TTCAGCGGGT | 0.983 ± 0.025 |
| TTCAGCTGGG | 0.998 ± 0.022 |
| TTCAGGATAC | 1.19 ± 0.043 |
| TTCAGGATGT | 1 ± 0.025 |
| TTCAGGATTT | 0.994 ± 0.038 |
| TTCAGGCACG | 0.986 ± 0.049 |
| TTCAGGGAGG | 1 ± 0.033 |
| TTCAGGGGGT | 1.02 ± 0.054 |

| Sequence | switch fluorescence ratio |
| --- | --- |
| TTCAGGGTTC | 0.966 ± 0.027 |
| TTCAGTGTTT | 0.993 ± 0.023 |
| TTCATAGGGG | 0.988 ± 0.015 |
| TTCATAGGTT | 1.02 ± 0.012 |
| TTCATAGTGA | 0.95 ± 0.028 |
| TTCATATTCA | 1.01 ± 0.023 |
| TTCATCGGCT | 1.34 ± 0.51 |
| TTCATCGGTT | 0.9922 ± 0.0022 |
| TTCATGTCAT | 1.01 ± 0.081 |
| TTCATTCATT | 0.982 ± 0.015 |
| TTCATTGTCG | 0.929 ± 0.062 |
| TTCATTGTTA | 1.03 ± 0.049 |
| TTCATTTTG | 1.01 ± 0.068 |
| TTCCAAACGG | 0.989 ± 0.014 |
| TTCCAAATTG | 0.993 ± 0.017 |
| TTCCAAGATC | 1.18 ± 0.12 |
| TTCCAAGGGT | 1.76 ± 1.5 |
| TTCCAATTTG | 1 ± 0.014 |
| TTCCACATTT | 1.12 ± 0.16 |
| TTCCACGACT | 1.02 ± 0.025 |
| TTCCAGCGGT | 1.03 ± 0.017 |
| TTCCAGCTTT | 1.02 ± 0.024 |
| TTCCAGGAGC | 0.946 ± 0.091 |
| TTCCAGGCGT | 1.23 ± 0.055 |
| TTCCAGTATT | 1.05 ± 0.049 |
| TTCCATATCG | 1.03 ± 0.061 |

| Sequence | switch fluorescence ratio |
| --- | --- |
| TTCCATATTT | 1.02 ± 0.026 |
| TTCCATGGTC | 1.02 ± 0.014 |
| TTCCATGTGT | 1.06 ± 0.044 |
| TTCCATGTTT | 1.06 ± 0.11 |
| TTCCATTTGC | 1.05 ± 0.074 |
| TTCCCACCGT | 1.06 ± 0.031 |
| TTCCGACGAT | 3.15 ± 2.3 |
| TTCCGGATTA | 1.07 ± 0.065 |
| TTCCGGCAAA | 1.5 ± 0.7 |
| TTCCGGCTTT | 1.01 ± 0.033 |
| TTCCGGGCCG | 1.03 ± 0.037 |
| TTCCGGGCTT | 1.41 ± 0.38 |
| TTCCGGGGGC | 1.61 ± 0.98 |
| TTCCGGGTAC | 3.27 ± 0.22 |
| TTCCGGTAAC | 2.07 ± 0.13 |
| TTCCGGTGAA | 1.0572 ± 0.00078 |
| TTCCGTGGGA | 1.06 ± 0.045 |
| TTCCGTTTTT | 1.51 ± 0.66 |
| TTCCTATGTT | 0.991 ± 0.056 |
| TTCCTCAGAC | 1.6 ± 0.87 |
| TTCCTGAAAA | 0.981 ± 0.016 |
| TTCCTGCGCT | 1.77 ± 1 |
| TTCCTGGTGG | 1.05 ± 0.073 |
| TTCCTGTTTC | 1.01 ± 0.023 |
| TTCCTTCATT | 1.04 ± 0.016 |
| TTCCTTGTTA | 0.9973 ± 0.0052 |

| Sequence | switch fluorescence ratio |
| --- | --- |
| TTCCTTTGGG | 0.964 ± 0.019 |
| TTCGAAGGGC | 1.14 ± 0.16 |
| TTCGAGAAGG | 0.972 ± 0.018 |
| TTCGAGGTGC | 1.04 ± 0.05 |
| TTCGAGTCGG | 0.967 ± 0.011 |
| TTCGAGTTTT | 0.9669 ± 0.00099 |
| TTCGATATTT | 0.982 ± 0.017 |
| TTCGATGATA | 1.07 ± 0.08 |
| TTCGATGGGG | 0.993 ± 0.048 |
| TTCGATGTGG | 1.01 ± 0.018 |
| TTCGATTACG | 1.03 ± 0.018 |
| TTCGCGACTT | 0.987 ± 0.029 |
| TTCGCGGGTG | 1.05 ± 0.025 |
| TTCGCTCGAG | 1 ± 0.017 |
| TTCGCTCTTT | 1.06 ± 0.025 |
| TTCGCTGTTC | 1.28 ± 0.027 |
| TTCGCTTTTT | 0.991 ± 0.032 |
| TTCGGAGGAG | 1 ± 0.012 |
| TTCGGAGGAT | 1.02 ± 0.048 |
| TTCGGAGGCT | 1.23 ± 0.3 |
| TTCGGATAAT | 0.98 ± 0.011 |
| TTCGGCCCCA | 0.99 ± 0.031 |
| TTCGGCGCCA | 1.03 ± 0.013 |
